Measurements taken from article PMC10798159.

Key:
macaque serum albumin [1] = experiment: ELISA; fit steady_state; antibody as scFv; antigen as not_told; on the surface: target; avidity monovalent
human serum albumin [2] = experiment: as above
macaque serum albumin [3] = experiment: SPR; fit kinetic; antibody as scFv; antigen as not_told; on the surface: target; avidity monovalent
human serum albumin [4] = experiment: as above
rat serum albumin = experiment: as above

Kd (macaque serum albumin [1]; pH 6.2): 0.6 ± 0.3 µM | Kd (macaque serum albumin [1]; pH 7.4): 0.4 ± 0.2 µM | Kd (human serum albumin [2]; pH 6.2): 0.08 ± 0.01 µM | Kd (human serum albumin [2]; pH 7.4): 0.06 ± 0.03 µM | Kd (macaque serum albumin [3]; pH 5.8): 0.9 µM | Kd (macaque serum albumin [3]; pH 7.4): 2.3 ± 0.4 µM | Kd (human serum albumin [4]; pH 5.8): 0.5 µM | Kd (human serum albumin [4]; pH 7.4): 0.8 µM | Kd (rat serum albumin; pH 5.8): 5.4 ± 1.92 µM | Kd (rat serum albumin; pH 7.4): 12.9 ± 5.1 µM
Substance: SON-1210
